Measured values taken from publication PMC10397247.
Like-named read-outs stand apart in the source and are kept apart here.

T1: 4H2837-AA
T1 chain: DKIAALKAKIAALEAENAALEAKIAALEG

T2: 4H2883-AA
T2 chain: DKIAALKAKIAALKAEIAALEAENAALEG

T3: 4H2944-AA
T3 chain: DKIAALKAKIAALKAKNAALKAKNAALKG

T4: 4H2949-AA
T4 chain: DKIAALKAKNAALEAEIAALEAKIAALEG

T5: 4H3112-AA
T5 chain: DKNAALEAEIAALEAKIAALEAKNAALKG

T6: 4H317-AA
T6 chain: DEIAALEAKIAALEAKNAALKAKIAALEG

T7: 4H3343-AA
T7 chain: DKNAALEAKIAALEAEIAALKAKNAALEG

T8: 4H335-AA
T8 chain: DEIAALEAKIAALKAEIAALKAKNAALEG

T9: 4H342-AA
T9 chain: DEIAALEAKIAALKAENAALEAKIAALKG

T10: 4H3427-AA
T10 chain: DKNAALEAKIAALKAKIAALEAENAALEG

T11: 4H3606-AA
T11 chain: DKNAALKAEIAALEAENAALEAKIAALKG

T12: 4H3627-AA
T12 chain: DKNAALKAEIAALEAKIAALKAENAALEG

T13: 4H3655-AA
T13 chain: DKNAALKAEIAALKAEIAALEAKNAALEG

T14: 4H3844-AA
T14 chain: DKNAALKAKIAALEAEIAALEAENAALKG

T15: 4H3921-AA
T15 chain: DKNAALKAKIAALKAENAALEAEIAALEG

T16: 4H429-AA
T16 chain: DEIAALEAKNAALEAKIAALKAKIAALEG

T17: 4H454-AA
T17 chain: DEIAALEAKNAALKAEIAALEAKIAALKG

T18: 4H48-AA
T18 chain: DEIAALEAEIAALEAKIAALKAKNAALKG

T19: 4H566-AA
T19 chain: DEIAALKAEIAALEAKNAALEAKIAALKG

T20: 4H605-AA
T20 chain: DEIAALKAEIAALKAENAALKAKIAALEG

T21: 4H678-AA
T21 chain: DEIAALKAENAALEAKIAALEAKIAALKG

T22: 4H717-AA
T22 chain: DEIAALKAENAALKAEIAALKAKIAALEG

T23: 4H780-AA
T23 chain: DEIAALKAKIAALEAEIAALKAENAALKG

T24: 4H794-AA
T24 chain: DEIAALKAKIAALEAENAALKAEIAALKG

T25: 4H881-AA
T25 chain: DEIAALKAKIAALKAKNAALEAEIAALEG

T26: 4H906-AA
T26 chain: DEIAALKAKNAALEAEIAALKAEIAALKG

T27: 4H993-AA
T27 chain: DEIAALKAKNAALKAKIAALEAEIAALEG

T28: 4H949-bA
T28 chain: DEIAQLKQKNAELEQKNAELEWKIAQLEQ

T29: APC9096-AA
T29 chain: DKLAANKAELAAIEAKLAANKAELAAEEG

T30: APC9319-AA
T30 chain: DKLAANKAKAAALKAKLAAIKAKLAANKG

T31: 4H2754-AA
T31 chain: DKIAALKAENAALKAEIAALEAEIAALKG


How the values were obtained:
4H2837-AA = molecular target: T1, 4H2837-AA; test: two-hybrid library CCmax;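 note: natural log of median RNA to DNA barcode read ratio; higher means stronger binding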
4H2883-AA = molecular target: T2, 4H2883-AA; test: two-hybrid library CCmax;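 note: natural log of median RNA to DNA barcode read ratio; higher means stronger binding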
4H2944-AA = molecular target: T3, 4H2944-AA; test: two-hybrid library CCmax; conditions: mean of both orientations;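 note: natural log of median RNA to DNA barcode read ratio; higher means stronger binding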
4H2949-AA = molecular target: T4, 4H2949-AA; test: two-hybrid library CCmax; conditions: mean of both orientations;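 note: natural log of median RNA to DNA barcode read ratio; higher means stronger binding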
4H3112-AA = molecular target: T5, 4H3112-AA; test: two-hybrid library CCmax; conditions: mean of both orientations;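 note: natural log of median RNA to DNA barcode read ratio; higher means stronger binding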
4H317-AA = molecular target: T6, 4H317-AA; test: two-hybrid library CCmax; conditions: mean of both orientations;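 note: natural log of median RNA to DNA barcode read ratio; higher means stronger binding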
4H3343-AA = molecular target: T7, 4H3343-AA; test: two-hybrid library CCmax; conditions: mean of both orientations
4H335-AA = molecular target: T8, 4H335-AA; test: two-hybrid library CCmax; conditions: mean of both orientations
4H342-AA = molecular target: T9, 4H342-AA; test: two-hybrid library CCmax; conditions: mean of both orientations
4H3427-AA = molecular target: T10, 4H3427-AA; test: two-hybrid library CCmax; conditions: mean of both orientations
4H3606-AA = molecular target: T11, 4H3606-AA; test: two-hybrid library CCmax; conditions: mean of both orientations
4H3627-AA = molecular target: T12, 4H3627-AA; test: two-hybrid library CCmax; conditions: mean of both orientations
4H3655-AA = molecular target: T13, 4H3655-AA; test: two-hybrid library CCmax; conditions: mean of both orientations
4H3844-AA = molecular target: T14, 4H3844-AA; test: two-hybrid library CCmax; conditions: mean of both orientations
4H3921-AA = molecular target: T15, 4H3921-AA; test: two-hybrid library CCmax; conditions: mean of both orientations
4H429-AA = molecular target: T16, 4H429-AA; test: two-hybrid library CCmax; conditions: mean of both orientations
4H454-AA = molecular target: T17, 4H454-AA; test: two-hybrid library CCmax; conditions: mean of both orientations
4H48-AA = molecular target: T18, 4H48-AA; test: two-hybrid library CCmax; conditions: mean of both orientations
4H566-AA = molecular target: T19, 4H566-AA; test: two-hybrid library CCmax; conditions: mean of both orientations
4H605-AA = molecular target: T20, 4H605-AA; test: two-hybrid library CCmax; conditions: mean of both orientations
4H678-AA = molecular target: T21, 4H678-AA; test: two-hybrid library CCmax; conditions: mean of both orientations
4H717-AA = molecular target: T22, 4H717-AA; test: two-hybrid library CCmax; conditions: mean of both orientations
4H780-AA = molecular target: T23, 4H780-AA; test: two-hybrid library CCmax; conditions: mean of both orientations
4H794-AA = molecular target: T24, 4H794-AA; test: two-hybrid library CCmax; conditions: mean of both orientations
4H881-AA = molecular target: T25, 4H881-AA; test: two-hybrid library CCmax; conditions: mean of both orientations
4H906-AA = molecular target: T26, 4H906-AA; test: two-hybrid library CCmax; conditions: mean of both orientations
4H993-AA = molecular target: T27, 4H993-AA; test: two-hybrid library CCmax; conditions: mean of both orientations
4H949-bA = molecular target: T28, 4H949-bA; test: two-hybrid library CCNG1
APC9096-AA = molecular target: T29, APC9096-AA; test: two-hybrid library CCmax
APC9319-AA = molecular target: T30, APC9319-AA; test: two-hybrid library CCmax; conditions: mean of both orientations
4H2754-AA = molecular target: T31, 4H2754-AA; test: two-hybrid library CCmax

| interaction score (4H2944-AA) | interaction score (4H2949-AA) | interaction score (4H3112-AA) | interaction score (4H317-AA) | interaction score (4H3343-AA) | interaction score (4H335-AA) | interaction score (4H342-AA) | interaction score (4H3427-AA) | interaction score (4H3606-AA) | interaction score (4H3627-AA) | interaction score (4H3655-AA) | interaction score (4H3844-AA) | interaction score (4H3921-AA) | interaction score (4H429-AA) | interaction score (4H454-AA) | interaction score (4H48-AA) | interaction score (4H566-AA) | interaction score (4H605-AA) | interaction score (4H678-AA) | interaction score (4H717-AA) | Binder | other results |
| --- | --- | --- | --- | --- | --- | --- | --- | --- | --- | --- | --- | --- | --- | --- | --- | --- | --- | --- | --- | --- | --- |
| 0.691 | -0.836 | 1.23 | 1.61 | -1.14 | -0.534 | 2.11 | -2.38 | -1.14 | -1.3 | -0.923 | -1.21 | -1.49 | 0.476 | -0.102 | 0.24 | 1.66 | 0.402 | -1.18 | -0.861 | DKIAALKAKIAALEAENAALEAKIAALEG [4H2837-AA] | interaction score (4H2837-AA): 1.42; interaction score (4H2883-AA): -0.938; interaction score (4H780-AA): -1.81; interaction score (4H794-AA): 0.0291; interaction score (4H881-AA): 1.65; interaction score (4H906-AA): -0.599; interaction score (4H993-AA): 1.44 |
| – | – | – | – | – | – | – | – | – | – | – | – | – | – | – | – | – | – | – | – | DEIAQLKQKNAELEQKNAELEWKIAQLEQ [4H949-bA] | interaction score (4H949-bA): -0.253 |
| – | – | – | – | – | – | – | – | – | – | – | – | – | – | – | – | – | – | – | – | DKLAANKAELAAIEAKLAANKAELAAEEG [APC9096-AA] | interaction score (APC9096-AA): -2.06; interaction score (APC9319-AA): -1.81 |
| -1.87 | -1.05 | -1.52 | -1.23 | -1.26 | -0.745 | 0.684 | -1.7 | 0.688 | -1.36 | -1.51 | -1.53 | -0.732 | 0.608 | 2.24 | -1.2 | -1.09 | -1.51 | 1.82 | 0.757 | DKIAALKAENAALKAEIAALEAEIAALKG [4H2754-AA] | interaction score (4H2754-AA): 2.15; interaction score (4H2837-AA; mean of both orientations): -0.727; interaction score (4H2883-AA; mean of both orientations): -0.999; interaction score (4H780-AA): -1.74; interaction score (4H794-AA): -1.89; interaction score (4H881-AA): 1.13; interaction score (4H906-AA): -0.0753; interaction score (4H993-AA): 1.43 |
